Data reported in patent publication US9120862.

Key:
[1] = biological target: PIVKA-II antigen (Protein Induced by Vitamin K Absence II; decarboxylated prothrombin) (human) (UniProt P00734); assay: … sandwich chemiluminescent immunoassay, 3C10 microparticles capture, conjugate detects; calibrator E, 7500 mAU/mL PIVKA; mean of 5
[2] = biological target: PIVKA-II antigen (Protein Induced by Vitamin K Absence II; decarboxylated prothrombin) (human) (UniProt P00734); assay: … sandwich chemiluminescent immunoassay, 3C10 microparticles capture, conjugate detects; calibrator C, 100 mAU/mL PIVKA; mean of 5
[3] = biological target: PIVKA-II antigen (Protein Induced by Vitamin K Absence II; decarboxylated prothrombin) (human) (UniProt P00734); assay: … sandwich chemiluminescent immunoassay, 3C10 microparticles capture, conjugate detects; calibrator D, 750 mAU/mL PIVKA; mean of 5
[4] = biological target: PIVKA-II antigen (Protein Induced by Vitamin K Absence II; decarboxylated prothrombin) (human) (UniProt P00734); assay: … sandwich chemiluminescent immunoassay, 3C10 microparticles capture, conjugate detects; calibrator B, 20 mAU/mL PIVKA; mean of 5
[5] = biological target: PIVKA-II antigen (Protein Induced by Vitamin K Absence II; decarboxylated prothrombin) (human) (UniProt P00734); assay: … sandwich chemiluminescent immunoassay, 3C10 microparticles capture, conjugate detects; calibrator F, 30000 mAU/mL PIVKA; mean of 5
[6] = biological target: PIVKA-II antigen (Protein Induced by Vitamin K Absence II; decarboxylated prothrombin) (human) (UniProt P00734); assay: … sandwich chemiluminescent immunoassay, 3C10 microparticles capture, conjugate detects; calibrator A, 0 mAU/mL PIVKA (blank); mean of 5

control conjugate that reacts to human prothrombin (Abbott Japan, Tokyo, Japan) (antibody)
RLU [1]: 204000 RLU | RLU [2]: 2600 RLU | RLU [3]: 19000 RLU | RLU [4]: 683 RLU | RLU [5]: 871000 RLU | RLU [6]: 190 RLU
